Experimental data reported in patent US11732027B2, “Protease-activated receptor-2 modulators” (Oasis Pharmaceuticals, LLC, priority 2015, dated 2023).
Numbered stars: 1 amine (or outer) side, 2 acyl side, 3 side chain; on linkers, the order of the positions; unused ones are H or OH. Square brackets hold non-standard residues; d marks the D form. * marks the point of attachment. εLys = N[C@@H](CCCCN[*:1])C(=O)[*:2]; Palmitoyl = CCCCCCCCCCCCCCCC(=O)*; Cit = NC(=O)NCCC[C@H](N)C(=O)O; Ahx = NCCCCCC(=O)O; βAla = NCCC(=O)O

Assays:
PAR2 = target: T1, PAR2 (Homo sapiens, UniProt P55085); experiment: Calcium flux assay, antagonist activity against SLIGRL in SW620 cells endogenously expressing PAR2; format: cell-based; details: 1 min pretreatment, 8 μM SLIGRL agonist
T1 construct: SW620 human colon adenocarcinoma cells that endogenously express PAR2; endogenous in cells; host or cells: SW620 human colon adenocarcinoma cells
T1 sequence (P55085 26-397): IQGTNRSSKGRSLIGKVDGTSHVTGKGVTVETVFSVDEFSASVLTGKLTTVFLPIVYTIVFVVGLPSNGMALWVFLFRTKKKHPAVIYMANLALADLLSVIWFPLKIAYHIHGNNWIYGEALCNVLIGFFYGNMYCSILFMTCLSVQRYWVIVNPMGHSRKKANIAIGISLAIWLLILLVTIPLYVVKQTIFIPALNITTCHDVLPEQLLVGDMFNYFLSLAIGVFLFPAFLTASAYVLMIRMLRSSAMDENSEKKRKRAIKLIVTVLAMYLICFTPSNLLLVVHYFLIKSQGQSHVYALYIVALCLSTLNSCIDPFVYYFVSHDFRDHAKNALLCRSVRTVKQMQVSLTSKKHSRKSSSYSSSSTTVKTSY
Protocol: Table 2 provides the antagonist activity for the resulting palmitoylated peptides (SEQ ID NO: 1-11, 13-41, and 70) of Table 1. Table 2 also provides the antagonist activity for the resulting myristoylated peptide SEQ ID NO: 12 of Table 1. Antagonist activity of the peptides were measured using calcium flux assays with SW620 human colon adenocarcinoma cells that endogenously express PAR2. The calcium signal of […] SLIGRL (SEQ ID NO: 73) following 1 min pretreatment with 3 μM or 10 μM of palmitoylated peptides. Final concentration of DMSO vehicle was 0.2%. Antagonist activity of 3 μM and 10 μM peptides against 8 μM SLIGRL (SEQ ID NO: 73; a known PAR2 agonist) was measured by maximal calcium flux. Experiments were repeated at least 2-3 times each and gave similar results.

db/db mouse = experiment: Obese-diabetic (db/db) mouse model, daily SC treatment for 3 weeks; format: in vivo; details: db/db mice, 10 mg/kg SC daily, over 3 weeks
Protocol: FIGS. 1A to 1B. Male obese-diabetic (db/db) mice, 6-8 weeks of age were purchase from Charles River Labs. The db/db mouse is a […] animal which serves as a model for diabetes, obesity and dyslipidemia. Animals were randomized according to blood glucose and body weight on day −2 and were allowed to eat a normal chow diet ad libitum. Treatment was initiated from day 0 with mice receiving daily subcutaneous (SC) injections (5 mL/kg) at 7-10 AM. HbA1c was monitored on days 0, 7, 14 and 21. Mice (n=10) were treated daily with either 10 mg/kg N-palmitoylated-SEQ70 (PZ-235) or vehicle (“Veh”). […] HbA1c levels reflect long-term blood glucose levels. […]
FIG. 2. Diabetic mice from the experiment in FIGS. 1A and 1B had their morning blood glucose measured thrice weekly.
FIG. 3. Diabetic mice had their blood glucose profile monitored on days 1, 8 and 22. […]
FIGS. 5A to 5B. Diabetic mice had their plasma triglyceride levels measured at baseline and after 3 weeks of treatment with PZ-235 versus vehicle.
FIG. 6. Diabetic mice had their liver triglyceride levels measured after 3 weeks of treatment with PZ-235 versus vehicle. At termination of the 3 week experiment, livers were isolated from the diabetic mice, snap frozen and liver triglycerides measured.

Molecule | Max (% Inh), maximal calcium flux (PAR2; 3 uM peptide) [%] | Max (% Inh), maximal calcium flux (PAR2; 10 uM peptide) [%] | food intake versus vehicle group (db/db mouse) | weight gain versus vehicle group (db/db mouse)
30 (GLDENSEPKRKSAIKLI) [compound 30] | 6 | 0 | – | –
11 (Pal-PLHHDSEPKR[dK]SAIK[dL]-NH2) [compound 11] | 31 | 95 | – | –
32 (PGDENSEKPKRKQAIK) [compound 32] | – | 93 | – | –
8 (Pal-AIHHDSE[dP]RKSAAKL-NH2) [compound 8] | 16 | 18 | – | –
36 (GDENSEKKRKQAIKL) [compound 36] | 65 | 65 | – | –
37 (GDENSEKKRKQAIKLI) [compound 37] | 0 | 65 | – | –
31 (GDENHEKKRKQAIK) [compound 31] | 38 | 65 | – | –
9 (Pal-GLHHDSEPKRKSAIKL[dI]-NH2) [compound 9] | 75 | 95 | – | –
33 (GPDENSEKKPRKQAIK) [compound 33] | 23 | 93 | – | –
3 (DSEKKRKQAIKLI) [compound 3] | 49 | 89 | – | –
17 (Palmitoyl-[Ahx]LHHDSEPKR[dK]SAIK[dV]-NH2) [compound 17] | 10 | 66 | – | –
34 (Palmitoyl-GDENSEKK[Cit]KQAIK-NH2) [compound 34] | 23 | 93 | – | –
39 (GDENSEKRWLWAIK) [compound 39] | 23 | 93 | – | –
20 (Pal-[εLys]AIDENSEKKFKSAIKL-NH2) [compound 20] | 17 | 86 | – | –
14 (Pal-[εLys]LDENSEKKF[dK]SAIKL[dV]-NH2) [compound 14] | 8 | 26 | – | –
4 (RSSAIDENSEKKRKSAIK) [compound 4] | 24 | 82 | – | –
25 (AMDENSEKKYKSAIKL) [compound 25] | 23 | 29 | – | –
7 (Pal-AIHHDSE[dP]KRKSAIKL-NH2) [compound 7] | 50 | 84 | – | –
CCCCCCCCCCCCCCCC(=O)N[C@@H](CCCNC(=N)N)C(=O)N[C@@H](CO)C(=O)N[C@@H](CO)C(=O)N[C@@H](C)C(=O)N[C@@H](CCSC)C(=O)N[C@@H](CC(=O)O)C(=O)N[C@@H](CCC(=O)O)C(=O)N[C@@H](CC(N)=O)C(=O)N[C@@H](CO)C(=O)N[C@@H](CCC(=O)O)C(=O)N[C@@H](CCCCN)C(=O)N[C@@H](CCCCN)C(=O)N[C@@H](CCCNC(=N)N)C(=O)N[C@@H](CCCCN)C(=O)N[C@@H](CO)C(=O)N[C@@H](C)C(=O)N[C@H](C(=O)N[C@@H](CCCCN)C(N)=O)[C@@H](C)CC [SEQ ID NO 70] | – | – | did not vary significantly | did not vary significantly
38 (GDENSEKKRKQAIK) [compound 38] | 23 | 65 | – | –
16 (Pal-GLHHDSEPKR[dK][βAla]IK[dV]-NH2) [compound 16] | 17 | 60 | – | –
2 (GDHNSEKKRKQAIK) [compound 2] | 23 | 78 | – | –
41 (MDENSEKKRKRAIK) [compound 41] | 38 | 65 | – | –
35 (Pal-GDENSEKKRKSAIK[dA]-NH2) [compound 35] | 23 | 65 | – | –
1 (GHENSEKKRKQAIK) [compound 1] | 33 | 85 | – | –
40 (GDENSEKKRKWAIK) [compound 40] | 38 | 93 | – | –
5 (AIDENSEKKFKSAIKL) [compound 5] | 18 | 32 | – | –
